{
  "source": "patent EP3464323B1",
  "biological_target": "CY5 fluorescently labeled CAS9 protein (S. pyogenes) (UniProt Q99ZW2)",
  "assay": "fluorescence titration; 5 nM CY5-CAS9 titrated with peptide, quadratic fit",
  "data": [
    {"substance": "CADY (peptide)", "values": [
      {"measurement": "Kd", "result": "> 100", "unit": "nM"}
    ]}
  ]
}
